Assay results taken from PMC7255693 (2020).

T1: CapZ peptide (TAMRA-TRTK) 265-276 (Homo sapiens, UniProt P52907, not fully specified)
T1 chain: {TAMRA}-TRTKIDWNKILS-NH2


Experiments:
[1] = biological target: HDM4 peptide (TAMRA-HDM4 25-43) 25-43 (Homo sapiens), O15151
[2] = biological target: T1, CapZ peptide (TAMRA-TRTK) 265-276; experiment: fluorescence polarization titration

Row | Kd [1] [µM] | Kd [2] [µM] | Binder
1 | 3.67 |  | S100A1, P23297 (protein) MGSELETAMETLINVFHAHSGKEGDKYKLSKKELKELLQTELSGFLDAQKDVDAVDKVMKELDENGDGEVDFQEYVVLVAALTVACNNFFWENS
2 |  | 0.13 | S100B (protein) SELEKAMVALIDVFHQYSGREGDKHKLKKSELKELINNELSHFLEEIKEQEVVDKVMETLDNDGDGECDFQEFMAFVAMVTTACHEFFEHE
